Blank lines part the entries; values can stand above or below the molecule they belong to.
Key:
[1] = biological target: ERK2 (pERK2, activated by co-expression with constitutively active MEK) (UniProt P63086); assay: MST; 200 nM fluorescently labeled (RED-NHS) ERK2 incubated 30 minutes at room temperature in the dark with different concentrations of purified ETS1 or ERG; standard glass capillaries; NanoTemper Monolith NT.115, LED 80%, IR laser 80%
[2] = biological target: T1, ETS1, full-length human, 6x His-tagged (human, UniProt P14921 1-441); assay: as above; conditions: both partners purified
T1 construct: human ETS1, full-length cDNA in pET28a
T1 sequence (looked up): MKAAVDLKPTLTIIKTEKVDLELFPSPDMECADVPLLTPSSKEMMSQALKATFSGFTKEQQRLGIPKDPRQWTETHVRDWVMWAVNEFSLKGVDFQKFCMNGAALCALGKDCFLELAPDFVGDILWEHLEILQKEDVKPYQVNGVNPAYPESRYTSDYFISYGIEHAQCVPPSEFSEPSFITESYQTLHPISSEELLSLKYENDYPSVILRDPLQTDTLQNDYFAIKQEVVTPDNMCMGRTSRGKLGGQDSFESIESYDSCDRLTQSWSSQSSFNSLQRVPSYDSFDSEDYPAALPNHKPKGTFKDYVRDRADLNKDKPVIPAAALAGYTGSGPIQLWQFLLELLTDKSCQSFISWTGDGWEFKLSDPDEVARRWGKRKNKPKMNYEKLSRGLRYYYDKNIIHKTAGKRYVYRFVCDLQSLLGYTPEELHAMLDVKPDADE

- Kd [1]: 0.23 µM
Molecule: ERG (isoform 1), full-length human, 6x His-tagged (natural protein)

- Kd [2]: 1.79 µM
B1: ERK2 (pERK2, activated by co-expression with constitutively active MEK) (enzyme, UniProt P63086 1-358, looked up)
chain: MAAAAAAGPEMVRGQVFDVGPRYTNLSYIGEGAYGMVCSAYDNLNKVRVAIKKISPFEHQTYCQRTLREIKILLRFRHENIIGINDIIRAPTIEQMKDVYIVQDLMETDLYKLLKTQHLSNDHICYFLYQILRGLKYIHSANVLHRDLKPSNLLLNTTCDLKICDFGLARVADPDHDHTGFLTEYVATRWYRAPEIMLNSKGYTKSIDIWSVGCILAEMLSNRPIFPGKHYLDQLNHILGILGSPSQEDLNCIINLKARNYLLSLPHKNKVPWNRLFPNADSKALDLLDKMLTFNPHKRIEVEQALAHPYLEQYYDPSDEPIAEAPFKFDMELDDLPKEKLKELIFEETARFQPGYRS
modifications: phosphorylated by co-expressed constitutively active MEK (pERK2); fluorescently labeled with amine reactive RED-NHS dye (Monolith Protein Labeling Kit RED-NHS)
notes: also called ERK2 kinase; source: co-expressed with constitutively active MEK, purified from bacteria as described [52]

— PMC4338625, “Comparison of MAPK specificity across the ETS transcription factor family identifies a high-affinity ERK interaction required for ERG function in prostate cells” (Cell Communication and Signaling : CCS, 2015)
